From article doi:10.1101/2021.07.22.453398
Like-named read-outs stand apart in the source and are kept apart here.

What was measured:
[1] = target: bison NHA2ΔN (structural construct, tag removed by TEV) (Bison bison); experiment: cryo-EM structure
[2] = target: bison NHA2ΔN (structural construct, tag removed by TEV) (Bison bison); experiment: cryo-EM structure; remark: listed apart in the source

bison NHA2ΔN (structural construct, tag removed by TEV) (domain or fragment)
stoichiometry N [1]: 2 | stoichiometry N [2]: 2
